# Columns and labels:
# [1] = biological target: PrimeScript reverse transcriptase (UniProt P03355); settings: LNA at GATA and GAAC of 3' 12-mer GATAgcttGAAC of SEQ 2 (mC LNA), PS linkages in the 12-mer; iSp18 spacer and 3' amino in DCP1; read-through efficiency, 42 C
# [2] = system: AMV reverse transcriptase (Avian myeloblastosis virus); settings: LNA at GATA and GAAC of 3' 12-mer GATAgcttGAAC of SEQ 2 (mC LNA), PS linkages in the 12-mer; iSp18 spacer and 3' amino in DCP1; read-through efficiency, 42 C; lost above 52.5 C
# [3] = biological target: Volcano2G DNA polymerase (UniProt P19821); settings: LNA at GATA and GAAC of 3' 12-mer GATAgcttGAAC of SEQ 2 (mC LNA), PS linkages in the 12-mer; iSp18 spacer and 3' amino in DCP1; first strand read-through efficiency vs DTT1, ddPCR, 42 C
# Sequence of Volcano2G DNA polymerase (P19821 whole entry): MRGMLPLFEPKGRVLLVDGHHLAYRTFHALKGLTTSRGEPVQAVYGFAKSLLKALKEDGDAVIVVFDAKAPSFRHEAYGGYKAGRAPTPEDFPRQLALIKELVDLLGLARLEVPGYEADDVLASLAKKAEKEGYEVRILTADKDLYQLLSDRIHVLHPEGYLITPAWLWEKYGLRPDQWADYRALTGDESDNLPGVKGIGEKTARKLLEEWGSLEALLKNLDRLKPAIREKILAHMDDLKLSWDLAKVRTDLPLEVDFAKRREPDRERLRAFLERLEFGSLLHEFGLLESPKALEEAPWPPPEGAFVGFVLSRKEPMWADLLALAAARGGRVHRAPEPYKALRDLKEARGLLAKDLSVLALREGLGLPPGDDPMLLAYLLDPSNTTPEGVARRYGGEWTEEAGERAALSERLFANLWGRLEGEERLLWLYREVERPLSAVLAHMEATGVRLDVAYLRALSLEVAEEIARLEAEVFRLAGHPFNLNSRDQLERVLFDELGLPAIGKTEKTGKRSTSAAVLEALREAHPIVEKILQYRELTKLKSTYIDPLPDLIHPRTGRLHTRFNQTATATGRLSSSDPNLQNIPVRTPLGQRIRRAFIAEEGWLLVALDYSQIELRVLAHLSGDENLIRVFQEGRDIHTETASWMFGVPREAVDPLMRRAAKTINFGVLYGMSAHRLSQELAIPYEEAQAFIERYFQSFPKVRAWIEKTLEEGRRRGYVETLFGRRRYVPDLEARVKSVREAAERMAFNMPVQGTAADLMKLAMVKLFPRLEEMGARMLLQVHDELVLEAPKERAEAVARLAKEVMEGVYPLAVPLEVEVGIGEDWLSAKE
sequence,measurement,setting,value
GCGTAACTAGACCATAAGCCGATAGCTTGAACCGGACCAGCAAGCTTAGAGATCACGGTATCCAGATTCGCTCATAGTACACAACTGCCTCCGGTTCAA / GCAGTTGTGTACTATGAGCGA [LTT1 template with DCP1_primer1],activity,[1],0.1%
same,activity,[2],0.1%
same,activity,[3],10%

# — patent publication US20210071247
